# Measurements from paper PMC4310248.
# B1: polyA24 (ssRNA)
# RNA: AAAAAAAAAAAAAAAAAAAAAAAA
# Biological target: Exo10Rrp6 (crystal; Exo9 core + Rrp6 128-685 D238N) (Saccharomyces cerevisiae, UniProt Q12149;P38792;Q08285;P53859;P46948;Q05636;Q12277;P48240;P53256;P25359 …, D238N;Rrp6:)
# Assay: X-ray crystallography
binder,measurement,value
B1,binding result,binds
